From patent US10705101B2, “Determination of the unbound free fatty acid profiles in biological and industrial specimens” (priority 2013, dated 2020)
Where a chain is given by its changes, count along the chain named. Names may count otherwise. Blank lines part the entries; values can stand above or below the molecule they belong to.

Columns and labels:
Assay type in all cases: binding
[1] = Probe response profile / specificity for different FFAu at 1 nM; conditions: FFAu giving the largest response to 1 nM of each FFAu; several listed in order of degree of specificity
Text: The abbreviations are: arachidonate (AA), docosahexaenoate (DHA), eicosapentaenoate (EPA), laurate (LAU), linoleate (LA), linolenate (LNA), myristate (MA), oleate (OA), palmitate (PA), palmitoleate (POA), stearate (SA), and vaccenate (VA).
Examples of probes used, generally in groups of 10 or more, to determine FFAu profiles in biological samples such as blood plasma or serum from animals and humans or media from microorganisms are shown in Table 2. In the sequences presented in Table 2 and the sequence listing, amino acids are numbered from the first residue of the mature protein. The initiator methionine residue of the wild-type protein is removed by aminopeptidase activity, leaving an alanine as residue 1. Thus, counting backwards and skipping 0, the initiator methionine is at residue position −1. Specificity indicates the FFAu that gives the largest response to 1 nM of each FFAu when one FFAu dominates the profile and more than one when there is a more even distribution of specificity. Where more than one is indicated they are listed in order of degree of specificity. The abbreviations are: arachidonate (AA), docosahexaenoate (DHA), eicosapentaenoate (EPA), laurate (LAU), linoleate (LA), linolenate (LNA), myristate (MA), oleate (OA), palmitate (PA), palmitoleate (POA), stearate (SA), and vacsinate (VA). The sequences indicate mutations relative to SEQ ID NO: 1. This sequence is a mutated rat intestinal fatty acid binding protein with a Glu 131 to Asp substitution and includes a COOH-terminal affininity tag comprising […], Gly 133 and 6 histidines.
The response profile is the fluorescence change as evaluated as (R−Ro)/Ro (ΔR/Ro) for each FFAu added as a complex of the FFA and albumin so that the FFAu concentration is clamped or buffered at 1 nM for every FFAu for which a calibration has been performed. The calculation is performed simply by rearranging equation 2 to solve for ΔR/Ro. […] However all the probes have different profiles and therefore complementary specificities for different FFAu. Abbreviations are as in Table 2.

[2] = Probe calibration by titration with FFA / FFA-BSA complexes: OA; conditions: equilibrium dissociation constant of probe for OA
Procedure: (§1) Calibration: Each probe is calibrated to the extent that the constants in Equation 2 are well determined for all FFAu to be included in profile calculations. Equation 2, which is the form of equation 1 for a single FFAu, relates the FFAu concentration to the equilibrium dissociation constant (Kd), fluorometric constants (Q and Rm) and the measured R values.
(§2) The calibration parameters are determined essentially as described in U.S. Pat. No. 7,601,510 which is incorporated herein by reference and (Huber et al Biochemistry (2006) 45:14263-14274) where the calibrated ADIFAB2 probe was used to generate FFA-BSA complexes with accurate and well buffered FFAu concentrations. To calibrate probes with substantially higher affinities than used in U.S. Pat. No. 7,601,510 and (Huber et al Biochemistry (2006) 45:14263-14274) a boot strap method is used in which a probe having higher affinities is calibrated with ADTFAB2. Such a probe is then used to generate FFA-BSA complexes with FFAu concentrations from 0.1 to 10 nM and these complexes are then used to calibrate other high affinity probes.
(§3) Probe calibration involves titrating the probes with either (i) un-buffered FFA or (ii) BSA-buffered FFA stocks. The un-buffered titrations involve measuring the R-value of a 1 μM probe solution as it is slowly titrated to saturation with small aliquots of a 100 to 250 μM FFA stock (Richieri G V et al. (1992) J Biol Chem 267: 23495-23501, Richieri G V et al. (1999) Mol Cell Biochem 192: 87-94). In this case, the total FFA concentration for each point in the titration is known and a nonlinear fit to the titration data yields the full set of fluorometric constants. In an un-buffered FFA titration, probe concentration is a key variable because the probe binds FFA, directly affecting the FFAu value.
(§4) Alternatively, in a BSA-buffered FFA calibration, the probe solution is titrated with a series of FFA-BSA complexes (600 μM BSA with [FFAu] ranging from 0.1 nM to 4 μM). The titration samples are FFA-BSA complex diluted 50-fold in Measuring Buffer. Probe is added to a concentration of 0.5 μM and the R-value is measured. Because BSA buffers FFAu, its concentration remains constant (i.e. known), even after the addition of probe. […] At least two calibrations with each of the up to 15 different FFA are performed for each probe.
(§5) All of the probes reveal substantial differences for different FFAu and in many cases these differences are related to the aqueous solubility of the FFA. For example, of the FFA in Table 3, SA is the least soluble and MA the most soluble. As discussed in (Richieri G V et al (2000) Biochemistry 39: 7197-7204) the tendency of natural proteins and FABPs, in particular, is for binding constants to be largest (smallest Kd) for the least soluble FFA and conversely for the most soluble FA. In two cases, ADIFAB2 and L11, Kd for SA is substantially the smallest and MA the largest and that pattern is more or less maintained for most of the other probes in Table3 with the exception of L83. In that case MA has the largest affinity while SA's more than 10 fold smaller. To some extent the other calibrations constants follow that behavior; Q is largest for the smallest Kd and Rmax is often largest, so that the probe response tends to be larger for FFA with the larger affinities. The ability to generate mutations that overcome the “natural thermodynamics” allows for probes that have a wide range of specificities and sensitivities than enable the determination of FFAu profiles.

[3] = Probe calibration by titration with FFA / FFA-BSA complexes: LA; conditions: equilibrium dissociation constant of probe for LA
Procedure: as §1, §2, §3, §4, §5

[4] = Probe calibration by titration with FFA / FFA-BSA complexes: SA; conditions: equilibrium dissociation constant of probe for SA; read-out: Kd SA
Procedure: as §1, §2, §3, §4, §5

[5] = Probe calibration by titration with FFA / FFA-BSA complexes: PA; conditions: equilibrium dissociation constant of probe for PA
Procedure: as §1, §2, §3, §4, §5

[6] = Probe calibration by titration with FFA / FFA-BSA complexes: POA; conditions: equilibrium dissociation constant of probe for POA
Procedure: as §1, §2, §3, §4, §5

[7] = Probe calibration by titration with FFA / FFA-BSA complexes: AA; conditions: equilibrium dissociation constant of probe for AA
Procedure: as §1, §2, §3, §4, §5

[8] = Probe calibration by titration with FFA / FFA-BSA complexes: DHA; conditions: equilibrium dissociation constant of probe for DHA
Procedure: as §1, §2, §3, §4, §5

[9] = Probe calibration by titration with FFA / FFA-BSA complexes: MA; conditions: equilibrium dissociation constant of probe for MA
Procedure: as §1, §2, §3, §4, §5

[10] = Probe calibration by titration with FFA / FFA-BSA complexes: LNA; conditions: equilibrium dissociation constant of probe for LNA
Procedure: as §1, §2, §3, §4, §5

B1: L44P1 C10: acrylodan-labeled mutant FABP probe: Y14L, M18L, I23L, G31N, L72G, A73T, D74A, R106W, Q115W, Y117L (protein, UniProt P02693 2-132, looked up, variant Y14L M18L I23L G31N L72G A73T D74A R106W Q115W Y117L)
Fatty acid-binding protein, …: AFDGTWKVDRNENLEKFLEKMGLNVVKRKLNAHDNLKLTITQEGNKFTVKESSNFRNIDVVFELGVDFAYSGTAGTELTGTWTMEGNKLVGKFKRVDNGKELIAVWEISGNELIWTLTYEGVEAKRIFKKE
modifications: acrylodan label
notes: acrylodan-labeled mutant FABP probe: Y14L, M18L, I23L, G31N, L72G, A73T, D74A, R106W, Q115W, Y117L
Specificity [1]: PA/OA/SA

B2: L35P10C4: acrylodan-labeled mutant FABP probe: M18L, G31N, L36Y, L72W, A73T, D74A, R106A, Q115E, Y117V (protein, UniProt P02693 2-132, looked up, variant M18L G31N L36Y L72W A73T D74A R106A Q115E Y117V)
Fatty acid-binding protein, …: B1 Fatty acid-binding protein, … with L14Y, L23I, L36Y, G72W, W106A, W115E, L117V
modifications: acrylodan label
notes: acrylodan-labeled mutant FABP probe: M18L, G31N, L36Y, L72W, A73T, D74A, R106A, Q115E, Y117V
Specificity [1]: DHA/AA

B3: L36P15 B7-1: acrylodan-labeled mutant FABP probe: M18L, I23V, G31N, F55R, L72W, A73T, D74A, R106A, Q115E, Y117V (protein, UniProt P02693 2-132, looked up, variant M18L I23V G31N F55R L72W A73T D74A R106A Q115E Y117V)
Fatty acid-binding protein, …: B1 Fatty acid-binding protein, … with L14Y, L23V, F55R, G72W, W106A, W115E, L117V
modifications: acrylodan label
notes: acrylodan-labeled mutant FABP probe: M18L, I23V, G31N, F55R, L72W, A73T, D74A, R106A, Q115E, Y117V
Specificity [1]: HA/AA/EPA

B4: L9BP6 H3: acrylodan-labeled mutant FABP probe: L38Y, F62W, L72A, Y117A (protein, UniProt P02693 2-132, looked up, variant L38Y F62W L72A Y117A)
Fatty acid-binding protein, …: AFDGTWKVDRNENYEKFMEKMGINVVKRKLGAHDNLKYTITQEGNKFTVKESSNFRNIDVVWELGVDFAYSAADGTELTGTWTMEGNKLVGKFKRVDNGKELIAVREISGNELIQTATYEGVEAKRIFKKE
modifications: acrylodan label
notes: acrylodan-labeled mutant FABP probe: L38Y, F62W, L72A, Y117A
Specificity [1]: SA/OA/PA

B5: L10P7 A4: acrylodan-labeled mutant FABP probe: Y14L, M18L, G31Y, A73L, Y117A (protein, UniProt P02693 2-132, looked up, variant Y14L M18L G31Y A73L Y117A)
Fatty acid-binding protein, …: B4 Fatty acid-binding protein, … with Y14L, M18L, G31Y, Y38L, W62F, A72L, A73L
modifications: acrylodan label
notes: acrylodan-labeled mutant FABP probe: Y14L, M18L, G31Y, A73L, Y117A
Specificity [1]: AA/DHA/OA/EPA/LA

Kd [2]: 33.9 nM | Kd [3]: 42.2 nM | Kd [4]: 17.6 nM | Kd [5]: 5.6 nM | Kd [6]: 87.9 nM | Kd [7]: 90.6 nM | Kd [8]: 206 nM | Kd [9]: 47.8 nM | Kd [10]: 89 nM
B6: L2P22 G6: acrylodan-labeled mutant FABP probe: M18I, G31Y, A73G (protein, UniProt P02693 2-132, looked up, variant M18I G31Y A73G)
Fatty acid-binding protein, …: B4 Fatty acid-binding protein, … with M18I, G31Y, Y38L, W62F, A72L, A73G, A117Y
modifications: acrylodan label
notes: acrylodan-labeled mutant FABP probe: M18I, G31Y, A73G

B7: L118P4 H5: acrylodan-labeled mutant FABP probe: Y14W, M18Q, K27C, L72A, D74Q, R106W (protein, UniProt P02693 2-132, looked up, variant Y14W M18Q K27C L72A D74Q R106W)
Fatty acid-binding protein, …: B4 Fatty acid-binding protein, … with Y14W, M18Q, K27C, Y38L, W62F, D74Q, R106W, A117Y
modifications: acrylodan label
notes: acrylodan-labeled mutant FABP probe: Y14W, M18Q, K27C, L72A, D74Q, R106W
Specificity [1]: DHA
